For this experiment, the target named is αRXR co-transfected into HEK293 cells. The experiment can be described thus: cell-based or functional assay.

“Heliothis virescens ecdysone receptor (HEcR) as expressed from effector plasmid pcDNA3H3KHEcR” returned an induction of reporter activity in HEK293 cells co-transfected with αRXR, effector and reporter, compared to the untreated cells of 9 fold; a reporter activity with αRXR co-transfected, compared to cells transfected with effector and reporter alone of 4 fold.
